B1: TPAV PTE capped (structured_RNA)
RNA: GGACAAGACCCCAGGCGGGACGCCACACCCAUGUUUGCAGACAUGGCCCGAGGAAACUCUGGUGUGGGCUGGGGGGAAUCC
modifications: 5' cap
B2: TPAV PTE uncapped (structured_RNA)
RNA: B1 RNA
B3: PEMV2 PTE capped (structured_RNA)
RNA: GUAGUGGUAGAACACGUGGGAUAGGGGAUGACCUUGUCGACCGGUUAUCGGUCCCCUGCUCCUUCGAGCUGGCAAGGCGCUCACAGGUUCUACACUGCUACUA
modifications: 5' cap
B4: PEMV2 PTE uncapped (structured_RNA)
RNA: B3 RNA

Key:
human eIF4E [1] = biological target: T1, human eIF4E (Homo sapiens, UniProt P06730 1-217); experiment: EMSA; EMSA: 10 mM HEPES pH 7.5, 20 mM KCl, 1 mM DTT, 3 mM MgCl2, 1 ug/uL tRNA, 0.5 ug/uL BSA, 1 U/uL RNaseOUT, 5% glycerol, 10 uL, 25 min on ice, gel at 4 C; SHAPE: benzoyl cyanide, 22 C; conditions: protein: recombinant; label: 32P; pseudoknot between C and G domains
T1 sequence (P06730 whole entry): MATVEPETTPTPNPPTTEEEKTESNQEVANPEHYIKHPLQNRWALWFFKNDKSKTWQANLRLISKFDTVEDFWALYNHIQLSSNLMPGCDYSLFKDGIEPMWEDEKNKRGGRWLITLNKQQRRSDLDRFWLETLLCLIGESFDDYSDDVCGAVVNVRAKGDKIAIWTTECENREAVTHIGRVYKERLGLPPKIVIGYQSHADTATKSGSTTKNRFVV

human eIF4E [2] = biological target: T1, human eIF4E; experiment: EMSA; text: not shifted by 2 uM; EMSA: 10 mM HEPES pH 7.5, 20 mM KCl, 1 mM DTT, 3 mM MgCl2, 1 ug/uL tRNA, 0.5 ug/uL BSA, 1 U/uL RNaseOUT, 5% glycerol, 10 uL, 25 min on ice, gel at 4 C; SHAPE: benzoyl cyanide, 22 C; conditions: protein: recombinant; label: 32P; pseudoknot between C and G domains; three bands without protein

Row | Binder | Kd (human eIF4E [1]) [nM] | Kd (human eIF4E [2]) [nM]
1 | B1 | 160 ± 1 | 
2 | B2 | 838 ± 124 | 
3 | B3 | 285 ± 33 | 
4 | B4 |  | 2520 ± 435

From paper PMC6471432, “The 3′ Untranslated Region of a Plant Viral RNA Directs Efficient Cap-Independent Translation in Plant and Mammalian Systems”
